Results: the supplement of paper PMC10065799, “High-throughput profiling of sequence recognition by tyrosine kinases and SH2 domains using bacterial peptide display” (eLife, 2023)

How the values were obtained:
AncSZ = experiment: phosphorylation enrichment, bacterial display (enrichment ratio); higher = better substrate or ligand; peptides without Tyr show the background
EPHB1 = EPHB1 (UniProt P54762); experiment: as above
EPHB2 = EPHB2 (UniProt P29323); experiment: as above
FGFR1 = FGFR1 (UniProt P11362); experiment: as above
FGFR3 = FGFR3 (UniProt P22607); experiment: as above
Fer (mouse) = experiment: as above
Fes = Fes (UniProt P07332); experiment: as above
Fyn = Fyn (UniProt P06241); experiment: as above
Hck = Hck (UniProt P08631); experiment: as above
Jak2 = Jak2 (UniProt O60674); experiment: as above
MERTK = MERTK (UniProt Q12866); experiment: as above
c-Abl (mouse) = experiment: as above
c-Src = experiment: as above
Grb2 SH2 = Grb2 SH2 (UniProt P62993); experiment: SH2 binding enrichment of the phosphorylated peptide, bacterial display (enrichment ratio); higher = better substrate or ligand; peptides without Tyr show the background
SHP2-C SH2 = experiment: as above
c-Src SH2 = experiment: as above
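Wherever SH2 binding enrichment of the phosphorylated peptide, bacterial display is given: peptide library displayed on the E. coli surface as eCPX fusions, selected cells deep-sequenced, score is each peptide's frequency after selection divided by its frequency in the input.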
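Wherever phosphorylation enrichment, bacterial display is given: 11-residue human phosphosite peptides and single-mutation variants displayed on the E. coli surface, counted by deep sequencing, each peptide's frequency after selection divided by its frequency in the unselected input library; frequency after pTyr selection over input frequency; kinase dosed for 20-30% of maximal phosphorylation in three min.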

Chain of EPHB2 (P29323 whole entry, looked up): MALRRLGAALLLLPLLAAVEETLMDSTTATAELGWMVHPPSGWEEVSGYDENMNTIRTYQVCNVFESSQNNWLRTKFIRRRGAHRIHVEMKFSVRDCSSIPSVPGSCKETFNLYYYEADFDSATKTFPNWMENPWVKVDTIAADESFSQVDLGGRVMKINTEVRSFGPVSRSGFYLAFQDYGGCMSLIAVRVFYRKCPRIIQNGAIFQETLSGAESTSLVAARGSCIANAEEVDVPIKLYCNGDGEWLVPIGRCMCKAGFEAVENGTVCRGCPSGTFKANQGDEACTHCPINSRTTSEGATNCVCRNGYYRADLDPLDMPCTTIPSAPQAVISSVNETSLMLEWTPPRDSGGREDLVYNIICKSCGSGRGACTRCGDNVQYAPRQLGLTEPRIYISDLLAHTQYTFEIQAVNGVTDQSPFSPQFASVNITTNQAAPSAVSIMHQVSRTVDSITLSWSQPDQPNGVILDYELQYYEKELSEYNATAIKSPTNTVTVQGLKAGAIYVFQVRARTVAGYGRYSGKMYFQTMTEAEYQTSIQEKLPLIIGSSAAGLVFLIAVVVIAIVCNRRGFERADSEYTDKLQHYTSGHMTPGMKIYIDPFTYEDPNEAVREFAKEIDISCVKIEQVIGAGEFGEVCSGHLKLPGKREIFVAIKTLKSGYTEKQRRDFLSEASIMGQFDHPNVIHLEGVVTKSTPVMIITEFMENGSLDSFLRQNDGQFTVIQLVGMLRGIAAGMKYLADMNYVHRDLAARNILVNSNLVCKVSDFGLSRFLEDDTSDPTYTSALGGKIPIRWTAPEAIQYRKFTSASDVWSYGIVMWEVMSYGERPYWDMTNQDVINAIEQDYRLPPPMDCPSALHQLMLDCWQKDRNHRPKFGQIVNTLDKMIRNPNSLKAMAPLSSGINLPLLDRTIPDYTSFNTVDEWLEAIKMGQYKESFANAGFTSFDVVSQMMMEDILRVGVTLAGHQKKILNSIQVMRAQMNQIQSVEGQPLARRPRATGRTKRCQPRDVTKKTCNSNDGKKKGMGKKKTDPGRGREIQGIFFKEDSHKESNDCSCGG
Chain of EPHB1 (P54762 whole entry, looked up): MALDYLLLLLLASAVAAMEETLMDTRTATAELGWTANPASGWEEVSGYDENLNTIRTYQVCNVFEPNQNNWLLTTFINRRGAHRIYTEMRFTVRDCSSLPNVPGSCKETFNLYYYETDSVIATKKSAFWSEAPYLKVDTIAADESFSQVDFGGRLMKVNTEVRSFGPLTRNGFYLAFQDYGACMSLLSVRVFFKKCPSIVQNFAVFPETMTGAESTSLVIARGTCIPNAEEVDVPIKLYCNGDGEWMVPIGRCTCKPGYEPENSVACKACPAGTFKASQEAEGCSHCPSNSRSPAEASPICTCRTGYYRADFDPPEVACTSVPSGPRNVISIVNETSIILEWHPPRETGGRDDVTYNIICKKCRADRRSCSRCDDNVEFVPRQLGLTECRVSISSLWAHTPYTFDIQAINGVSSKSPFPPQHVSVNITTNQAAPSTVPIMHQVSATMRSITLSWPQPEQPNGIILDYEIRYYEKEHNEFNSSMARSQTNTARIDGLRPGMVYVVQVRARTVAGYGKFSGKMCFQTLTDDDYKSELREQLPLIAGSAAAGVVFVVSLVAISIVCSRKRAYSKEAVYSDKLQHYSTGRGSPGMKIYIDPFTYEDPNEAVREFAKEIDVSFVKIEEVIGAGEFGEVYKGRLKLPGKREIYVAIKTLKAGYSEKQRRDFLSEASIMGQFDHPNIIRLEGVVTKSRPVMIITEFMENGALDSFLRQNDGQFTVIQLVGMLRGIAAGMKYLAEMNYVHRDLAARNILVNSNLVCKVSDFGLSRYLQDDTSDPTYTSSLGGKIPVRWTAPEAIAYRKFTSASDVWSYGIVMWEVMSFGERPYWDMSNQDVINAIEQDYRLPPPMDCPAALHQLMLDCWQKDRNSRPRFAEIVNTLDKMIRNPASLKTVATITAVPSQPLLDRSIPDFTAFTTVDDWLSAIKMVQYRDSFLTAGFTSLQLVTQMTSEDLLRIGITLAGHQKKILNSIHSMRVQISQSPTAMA
Chain of Jak2 (O60674 whole entry, looked up): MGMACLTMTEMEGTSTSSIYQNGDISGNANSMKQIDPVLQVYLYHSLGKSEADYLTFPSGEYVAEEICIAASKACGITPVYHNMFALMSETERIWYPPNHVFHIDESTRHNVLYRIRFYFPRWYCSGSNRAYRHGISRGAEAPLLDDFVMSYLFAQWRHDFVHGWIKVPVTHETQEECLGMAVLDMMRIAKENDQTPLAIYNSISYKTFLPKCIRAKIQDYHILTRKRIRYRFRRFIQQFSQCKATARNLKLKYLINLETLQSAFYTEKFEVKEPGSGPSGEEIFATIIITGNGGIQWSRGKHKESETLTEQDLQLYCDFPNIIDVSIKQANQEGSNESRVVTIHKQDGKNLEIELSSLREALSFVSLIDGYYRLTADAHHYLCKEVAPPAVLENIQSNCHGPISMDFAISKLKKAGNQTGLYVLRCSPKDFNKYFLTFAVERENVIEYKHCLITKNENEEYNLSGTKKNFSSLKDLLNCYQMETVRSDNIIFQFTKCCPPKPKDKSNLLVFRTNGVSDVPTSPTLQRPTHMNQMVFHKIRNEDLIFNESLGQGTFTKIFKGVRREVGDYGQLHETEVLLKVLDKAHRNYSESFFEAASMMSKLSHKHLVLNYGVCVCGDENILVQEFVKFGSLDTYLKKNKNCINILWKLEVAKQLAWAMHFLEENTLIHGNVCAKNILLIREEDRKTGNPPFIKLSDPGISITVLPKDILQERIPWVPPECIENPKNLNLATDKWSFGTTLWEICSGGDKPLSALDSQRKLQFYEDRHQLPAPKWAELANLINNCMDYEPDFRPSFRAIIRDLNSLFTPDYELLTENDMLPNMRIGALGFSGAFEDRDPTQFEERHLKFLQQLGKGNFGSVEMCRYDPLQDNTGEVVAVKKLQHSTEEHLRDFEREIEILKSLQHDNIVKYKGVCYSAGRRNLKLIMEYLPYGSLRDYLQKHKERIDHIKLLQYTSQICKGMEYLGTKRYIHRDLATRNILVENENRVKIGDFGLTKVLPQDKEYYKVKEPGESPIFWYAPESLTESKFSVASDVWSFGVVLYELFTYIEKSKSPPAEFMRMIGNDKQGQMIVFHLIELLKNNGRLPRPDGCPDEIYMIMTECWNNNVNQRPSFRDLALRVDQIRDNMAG
Chain of Fyn (P06241 whole entry, looked up): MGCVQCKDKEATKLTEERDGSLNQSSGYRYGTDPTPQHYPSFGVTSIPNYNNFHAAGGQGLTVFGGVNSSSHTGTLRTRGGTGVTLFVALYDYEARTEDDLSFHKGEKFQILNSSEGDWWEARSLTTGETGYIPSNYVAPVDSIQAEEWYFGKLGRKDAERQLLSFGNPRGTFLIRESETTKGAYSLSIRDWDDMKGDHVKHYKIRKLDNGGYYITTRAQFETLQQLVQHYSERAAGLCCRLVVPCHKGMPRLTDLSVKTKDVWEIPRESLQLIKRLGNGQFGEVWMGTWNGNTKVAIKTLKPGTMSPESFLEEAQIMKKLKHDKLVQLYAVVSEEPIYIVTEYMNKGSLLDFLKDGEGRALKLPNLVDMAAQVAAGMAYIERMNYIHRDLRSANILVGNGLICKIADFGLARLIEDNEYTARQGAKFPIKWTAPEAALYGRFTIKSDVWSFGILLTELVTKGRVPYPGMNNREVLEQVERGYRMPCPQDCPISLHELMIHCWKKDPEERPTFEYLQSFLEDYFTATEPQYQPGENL
Chain of Grb2 SH2 (P62993 whole entry, looked up): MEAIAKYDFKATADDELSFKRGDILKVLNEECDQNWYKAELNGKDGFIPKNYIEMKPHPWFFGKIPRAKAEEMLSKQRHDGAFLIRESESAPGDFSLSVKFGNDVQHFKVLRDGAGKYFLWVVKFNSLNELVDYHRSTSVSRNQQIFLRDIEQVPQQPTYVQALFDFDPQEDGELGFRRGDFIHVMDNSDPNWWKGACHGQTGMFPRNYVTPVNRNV
Chain of FGFR3 (P22607 whole entry, looked up): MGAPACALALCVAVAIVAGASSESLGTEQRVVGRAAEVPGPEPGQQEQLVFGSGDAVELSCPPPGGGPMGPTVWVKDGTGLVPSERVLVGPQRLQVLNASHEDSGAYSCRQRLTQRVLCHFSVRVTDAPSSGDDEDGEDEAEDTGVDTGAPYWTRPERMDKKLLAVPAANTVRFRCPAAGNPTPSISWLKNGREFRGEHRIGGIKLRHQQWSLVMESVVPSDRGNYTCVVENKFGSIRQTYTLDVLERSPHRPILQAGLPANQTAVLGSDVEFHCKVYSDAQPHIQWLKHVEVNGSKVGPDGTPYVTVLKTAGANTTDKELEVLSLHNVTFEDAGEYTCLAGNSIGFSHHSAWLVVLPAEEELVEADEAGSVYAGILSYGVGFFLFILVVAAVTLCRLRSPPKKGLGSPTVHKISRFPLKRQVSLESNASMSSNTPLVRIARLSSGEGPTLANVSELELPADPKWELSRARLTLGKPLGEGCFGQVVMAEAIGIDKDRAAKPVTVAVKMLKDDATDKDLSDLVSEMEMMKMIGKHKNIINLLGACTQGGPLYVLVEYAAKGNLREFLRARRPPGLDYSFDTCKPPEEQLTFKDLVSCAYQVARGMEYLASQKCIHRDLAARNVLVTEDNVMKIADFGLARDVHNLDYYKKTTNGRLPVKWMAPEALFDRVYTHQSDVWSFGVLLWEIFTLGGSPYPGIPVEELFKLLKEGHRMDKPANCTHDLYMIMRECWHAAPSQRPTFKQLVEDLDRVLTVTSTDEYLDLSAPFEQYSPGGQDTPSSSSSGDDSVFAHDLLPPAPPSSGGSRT

| Sequence | phosphorylation enrichment (AncSZ) | phosphorylation enrichment (EPHB1) | phosphorylation enrichment (EPHB2) | phosphorylation enrichment (FGFR1) | phosphorylation enrichment (FGFR3) | phosphorylation enrichment (Fer (mouse)) | phosphorylation enrichment (Fes) | phosphorylation enrichment (Fyn) | phosphorylation enrichment (Hck) | phosphorylation enrichment (Jak2) | phosphorylation enrichment (MERTK) | phosphorylation enrichment (c-Abl (mouse)) | phosphorylation enrichment (c-Src) | SH2 binding enrichment (Grb2 SH2) | SH2 binding enrichment (SHP2-C SH2) | SH2 binding enrichment (c-Src SH2) |
| --- | --- | --- | --- | --- | --- | --- | --- | --- | --- | --- | --- | --- | --- | --- | --- | --- |
| VIKDKYPKVRY [APTX_Y209_A212V] | 0.448 | 0.414 | 0.437 | 0.441 | 0.449 | 0.402 | 0.667 | 0.365 | 0.466 | 0.693 | 0.35 | 0.577 | 0.487 | 1.19 | 1.16 | 1.05 |
| HYMELYDLNRD [BBS2_Y648_R643H] | 1.5 | 2.98 | 1.45 | 3.57 | 2.94 | 1.28 | 1.22 | 2.58 | 2.89 | 1.22 | 4.26 | 0.862 | 6.4 | 1.07 | 1.33 | 2.44 |
| VSSIPYGQPKQ [NEU1_Y251_G248S] | 0.549 | 0.555 | 0.345 | 0.39 | 0.41 | 0.324 | 0.605 | 0.338 | 0.493 | 0.844 | 0.425 | 0.464 | 0.447 | 0.79 | 0.575 | 0.339 |
| PKSLFYLLLKP [TRPC6_Y775_L780P] | 1.64 | 0.759 | 0.569 | 0.708 | 1.12 | 0.568 | 2.1 | 0.439 | 0.513 | 1.73 | 0.963 | 1.31 | 0.684 | 1.16 | 1 | 0.851 |
| NTFEKYLEEEF [TF_Y669_G671E_YF] | 1.25 | 0.6 | 0.61 | 0.407 | 0.754 | 0.551 | 1.26 | 0.389 | 0.497 | 1.17 | 0.426 | 0.692 | 0.495 | 0.781 | 0.66 | 0.572 |
| WYQTKYEELQI [KRT6B_Y360] | 1.11 | 0.454 | 0.639 | 0.503 | 0.727 | 0.614 | 1.23 | 0.474 | 0.649 | 1.15 | 0.437 | 0.741 | 0.552 | 0.798 | 1.2 | 5.9 |
| QDRTYYESVRT [SPEN_Y633] | 0.996 | 0.98 | 0.758 | 1.9 | 1.37 | 4.79 | 0.874 | 2.28 | 4.01 | 0.82 | 1.21 | 0.61 | 2.66 | 0.724 | 1.54 | 3.76 |
| RKKEEYKMAPF [F8_Y1990_L1994P_YF] | 0.574 | 0.299 | 0.261 | 0.602 | 0.446 | 0.346 | 0.623 | 0.558 | 0.373 | 0.316 | 0.422 | 0.371 | 0.469 | 1.06 | 0.905 | 0.407 |
| INPIIYAFVGE [CCR5_Y297] | 1.17 | 10.7 | 9.51 | 3.48 | 2.75 | 6.77 | 2.02 | 6.13 | 6.19 | 1.03 | 7.72 | 10.4 | 4.84 | 0.776 | 0.6 | 0.46 |
| HGAGHYEDTIL [ALK_Y1604_P1599H] | 1.26 | 0.829 | 0.652 | 0.787 | 0.978 | 4.64 | 1.17 | 0.734 | 0.724 | 1 | 0.682 | 0.958 | 0.752 | 0.775 | 0.791 | 2.81 |
| GVTLLYYGRYN [ADGRD1_Y85] | 1.5 | 0.808 | 0.92 | 0.611 | 0.826 | 0.577 | 1.31 | 2.77 | 2.13 | 1.85 | 0.728 | 0.852 | 3.17 | 1.28 | 1.24 | 1.05 |
| LEYAKYGSLRG [RET_Y809_V804L] | 0.63 | 3.25 | 2.96 | 0.651 | 0.618 | 2.26 | 0.765 | 1.87 | 2.57 | 0.55 | 0.687 | 1.73 | 2.49 | 0.619 | 0.785 | 0.529 |
| VRKRSYSAGNA [KANK1_Y324] | 0.615 | 0.495 | 0.436 | 0.396 | 0.492 | 0.457 | 0.621 | 0.441 | 0.48 | 0.441 | 0.444 | 0.564 | 0.519 | 0.665 | 0.398 | 0.343 |
| TFGVVYRAKDK [CDK11B_Y453_YF] | 0.831 | 0.428 | 0.592 | 0.333 | 0.506 | 0.372 | 0.798 | 0.563 | 0.481 | 0.703 | 0.396 | 0.584 | 0.513 | 0.808 | 0.64 | 0.426 |
| LHNLSYQLEAE [PKP2_Y616] | 1.12 | 0.81 | 0.615 | 0.483 | 0.934 | 0.605 | 1.45 | 0.393 | 0.699 | 1.37 | 0.517 | 1.36 | 0.646 | 0.917 | 0.512 | 0.425 |
| SLIDMYSEVLD [OPA1_Y268] | 1.26 | 0.621 | 0.683 | 0.633 | 0.719 | 0.535 | 1.12 | 0.575 | 0.579 | 1.1 | 0.527 | 0.569 | 0.591 | 0.839 | 0.924 | 0.778 |
| GKVFVYHGSSL [ITGA7_Y458_I457V] | 1.03 | 0.564 | 0.523 | 0.514 | 0.676 | 0.476 | 1.06 | 0.449 | 0.434 | 0.674 | 0.435 | 0.563 | 0.349 | 1.06 | 0.64 | 0.638 |
